# According to the DeepSol protein solubility set:
# Experiment: soluble on expression in E. coli; label from the status in PepcDB or PDB records
row,Sequence,soluble on expression in E. coli
1,MGSDKIHHHHHHMHFVITGSLGHIGKPLAIQLSKEGHAVTVVSSNTERIKEIESIGAKAAIGSVEDPGFLTETFRGADAVFTMVPPNMNAADWKAWIAGIGKNYVAAIKESGVKHVVNLSSIGAHMVDKCGPVSGLSQVELAMDEMKGVNVHHLRAGYFYTNFLNSIGQIKNQGIITGNYMPDLKMVLVHPADIADIAARALKDESYLGRGFSYIASDEKTPAEIVTILGKATGRMDLKWVERTDKEEYDDLIAIGLPEEIAKNYTEMGAALRSGDMNADYFRNRPVMAGWRTFDSFMPEFIATYNA,not soluble
2,MGSDKIHHHHHHMHFVMIFLDGFGLGGDRDNPIMAAHTPYIDELLGGHYLWGQERRIESEQLILIPLDASLDVTGIPQSATGQTTLWTGVNGAKALGFHLNAYPNEKLAEIIKEKSIFKQLADQGKKVTFANTFTSHYDEMIASGKRRHTASTLSALAGGVPLRRIEDLLQGKGVYQDMTNEILRELEQEADIPLITSYEAGKNLGRLALDYDFTLYEFFQTDVRGHKQDWEKAVALIEQIDGFIGGFMSVVRHEDVTWLLTSDHGNIEDFRVKGHTQNPVPALGWSSKPLEWPQWERLEDVTPGIVRMILGTREL,not soluble
3,MGSDKIHHHHHHMHISLGPLLYCWQKQQVTDFYQQVAASQIPLVYLGEAVCSRRREFKWGDYLELAQMLKQAGKEVVISTLALIEAPSEYTELKRQVDNGEFMVEANDMAAVYLANEHKLPFVCGASINNYNRASLDILQRFGMQRFVMPVELSKAWLSQVIQQKPSFEVEVLGHGYLPLAHSARCFTARHKQLTKDHCETVCREYSKGLVAQTQEQQPLLRLNGIQTQSASCLDLRSEITTMAKMGVDVFRVSPSSLDCIATANALVDAINTPENAQHFAISSDANLERTQCNGYWFGEAGLAVHANP,not soluble
4,MGSDKIHHHHHHMHLGKYIKKYRDTNNLSMAEFAKESGISKAYVSILEKNRDPRNGKEIIPSIPIIKKVSDTIGISFDDLLNSLDENQIVALNETKTEKNLTSSTLQKITSTSSQLEQPRQEKVLSFANEQLEEQNKVVSMFDRKVEETENYITDYVEGLVAAGLGAYQEDNLHMEVKLRADDVPDKYDTIAKVAGNSMEPLIQDNDLLFVKVSSQVDMNDIGIFQVNGKNFVKKLKRDYDGAWYLQSLNKSYEEIYLSENDNIRTIGEVVDIYREN,not soluble
5,MGSDKIHHHHHHMHMQSPIQRRKSRQIHVGHVPVGGDAPIAVQSMTNTDTLDVDATVAQIRQLEAAGADIVRVSVPTMDAAEAFGQIKRQVSVPLVADIHFDYKIALRVAELGVDCLRINPGNIGREDRVRAVVDAARHHGIPIRIGVNAGSLEKDLQKKYGEPTPEALVESAMRHIEHLDRLDFQDFKVSVKASDVFMAVAAYRQLAQRIDQPLHLGITEAGGLRSGTVKSSIGLGLLLMEGIGDTIRVSLAADPVEEIKVGYDMLKSLRLRSKGINFIACPSCSRQNFDVIGTMNALEERLDDIMTPLDVSVIGCVVNGPGEAKESDIGLTGGDPANLVYIDGKPASKLRNDHLVDDLEALIRDKVREKEARERDTIAREA,not soluble
6,MGSDKIHHHHHHMHWRGEYSCLSDSWRVSTQEDGGRLQMLTFRSARPEDEDALYAISLATGDAGQDATPLYNDGRMVGHIYSVPYLRLWPDAVFVAEDEEGVCGYIAGALDTVLHEQRLEQEWWPHLRALYPDPGGDPQTWDADQRRAHFIHHPRNTPSWLTDPFPAHIHMNLLPRTQGKGGGTRLLSRWLDMARQNNVYGIHLGASERNHAGMRFWETRGFKHLDSHETPGSVWFGMALE,not soluble
7,MGSDKIHHHHHHMIDAFVRIGPLMDPASYPQWAQQLIEDCRESKRRVVEHEFYARLRDGQLKQSTIRQYLIGGWPVVEQFSLYMAHNLTKTRYGRHQGEDMARRWLMRNIRVELNHADYWVNWCQAHGVHLHELQAQEVPPELNGLNDWCWRVCATENLAISMAATNYAIEGATGEWSAVVCSTDTYAQGFPEEGRKRAMKWLKMHAQYDDAHPWEALEIICTLAGENPTLGLRTELRRAICKSYDCMFLFLERCMQLEGRQQGRMRPALAAG,not soluble
8,MGSDKIHHHHHHMIDFLLLKSLHSLLGLTITVCDQNFSVIREYKSEKTISLFYNHYLILSNFSKTQHDFLFHYGSLGELFLVHHIQQYYIIIGPWRSNVIDPLLLKKKLTETQINASEQDYFIDRLSQLPFFSLSQIRELLIVTNYCLTGVVKDKLSEPLHYYTKGWSNSFDLDKIKQFSKQNMSSYKYQYHFENNILKAVKSGSEFLLKETVEQFSNSIVPIISGDELRSEKNYSIMIYDRLSQATIQAGLDIETAYRARDRFIKENESTISLNEVLKLRDTAILFYTQQVHSLKKHLETPHSQTIVAVIRYLENNLNRFIKTEEIAKECHMSESKLRKLFKQEKHITIQQYFLNLKIEAAKQLLDENKKVEEVSNLLGFSTSSNFSRTFKKIVGISPLEYKQKPKTI,not soluble
9,MGSDKIHHHHHHMIDGKTANEIFDSIRQHIIAGTLRAEDSLPPVRELASELKVNRNTVAAAYKRLITAGLAQSLGRNGTVIKGSPSPVALEGGDPHTPLHDLSGGNPDPQRLPDLSRYFARLSRTPHLYGDAPVSPELHAWAARWLRDATPVAGEIDITSGAIDAIERLLCAHLLPGDSVAVEDPCFLSSINMLRYAGFSASPVSVDSEGMQPEKLERALNQGARAVILTPRAHNPTGCSLSARRAAALQNMLARYPQVVVIIDDHFALLSSSPWQPVIAQTTQHWAVIRSVSKTLGPDLRLAIVASDSATSAKLRLRLNAGSQWVSHLLQDLVYACLTDPEYQHRLTQTRLFYAARQQKLARALQQYGIAISPGDGVNAWLPLDTHSQATAFTLAKSGWLVREGEAFGVSAPSHGLRITLSTLNDSEINTLAADIHQALNR,not soluble
10,MGSDKIHHHHHHMIDIAEETGYQYEILISTRTSDEENYYYDEIKVVSRNTRKRSEGLARAVKSATGNYAFIFEPSVRYSLTYADLIYGYINLGTSEVLVSNILGFQTDVIKNVGNWRPLTCGEDIDLMARAFDSYGVISYPMGGLTGLDIDDLIYGKWRNRIEKALAMRDLVIAANLKHNNIAEMAESMGIDLPTYEWLISGRILSYLSGIRPYEKNVNNYIFIMERIIESYISQDYRRIDTVSASPYISLSNRTRKYLSSVSDLWTEQNTDNKYPRESV,not soluble
11,MGSDKIHHHHHHMIDLHCHILSGIDDGAQTITDSLAMAQQAVAEGIHTIVATPHHQNGKYVNERASIIHQVKQLNDELQQHEIPLKVLPGQEVRLYGGLLEDYEAGKIVTLNETNKYIFIEFPSNHVPRYTEQLFYELRVKGMIPIIVHPERNAELIERPDKLYNLVNKGALTQVTAGSLLGKFGKKIKRFSLQLVEHNLTHMIASDAHNTTSRGFHLEESYELIEKEFGTTVMNDLRENPYLIISGKAIYKEDPEQIRRKKLFGIF,not soluble
12,MGSDKIHHHHHHMIDMNLILKKKFQEISEVDDFISKASTETDYFEPSTLSHGIPGIILFLDAYQKVFDINTEQIVHKYIMKLAPYLQSGQYNNSLFGGLSGIAFSMDLASQNGKNYQNILNNIDGHIVNEIENKFDQILQEPLNPLNYDTVSGLAGIGRYLLNRVDENEFNVKALKSILVYFKDIQYSKNSWVVPQESQFLESDKNYFTEGNINLGLAHGVLGPMSLFALCVIKGITIENHQHILKDMYKFIMDEKFCNHERWLQRYDLISERNHFNFIRNGWCYGNTGVMTTLFLIGQALYYYEIIKMSKKVMLQVVNDKDENLISPTICHGLSSQILMLTIMNLNFELNEVSDYITVLINKLISHYKEDYLVNFIDINENKQDVFKSRKVGLLEGELGVYLTLMTLKNTKILNEKNWTNAFLIS,not soluble
13,MGSDKIHHHHHHMIEKPNAICLKNRKIIKVTGEEATHFLQALITTDVKKIGLQEIFPGALLSPQGKVLADFLIGKREDGYFIDIFSSLSDLLYKRLLLYKMRTKVEIMQPLQEFVTVSWENETDSLNFYSSFIDKRFPAKEKIIRIYGETPFLASECHDNWNRLRIRYAIPESDKDYEIGKVFPHDINYDQINGLAFNKGCYIGQEVVSRMHHRRAARRRILLVKSQHELIPGANIVAGTKILGSLGTCAANEALALMRIDHIKDAMDHNTPFTVKDVPVTISIAENMNFTFPESTV,not soluble
14,MGSDKIHHHHHHMIEKTNPSHILLPEDSIKKYILPKYNLQDAEILQIKFKDTEKQRAVYKLTLGSKKYCLKKVYYDKGELLFVYSTTEWFFRHGINVTRILPTLDNSRFVIYSGMIFILMPWIDGLKCNYDKKEDLFKASKNLAHMHKCSQKFFSIQGSSIRYGFEHIYLSNKKHFEQILSFFNKAYEINDSFSKIALNNCDLCIKLSKIALNASSRIESRNFKKSLCHLDYVNKNIIFDKNNDIWVIDFDKCKFDYSVHDISYFMRRIMKRDNTRWNSELLINMLNVYEQINPLNLDEYLYILSYLVFPQKFWKICKDYYNNLSRCNKAAFINLIKSTTKYSELHLKFAYNFSNYIEGKFNVSLNL,not soluble
15,MGSDKIHHHHHHMIFKEFGNKNMPTIVFLHGGGLSFWSFKEELSALKNSYRIVTPIIDGHGEDYNNTFISISNSAKHVINYIQESCNGHVFCICGLSLGAQILVEVLSLKHNISEYAVIESALVYPIKLSLNLMVAMNSLAYGLIKKKWFAKLQAKTLNVPQELFETYYKESSKMTKETLINITKSNGSYPMPNSICNTTASTLILVGERELSIMKKSAKLLNETIDNSILNIIPKAKHGEISLAYPKQYLDLLNKLFNSKK,not soluble
16,MGSDKIHHHHHHMIFKKMINEFKMEIKNNKSKINPIDVYRYSIFFRNYIESTAEDALKNGINLSLLEKSCLKESSKSLLGLKVQLKEALLEAMISYRFNGAGYILVKPKSEDEDLSKKVNSELPTGFKYLDFQKIINKRDSSYVEYLSNSKDPDDFERARVVKIDKSRVIIYENYDYVLGEQEPAYTQSLLLNICLLEQIYLEIEKRIRNYNFLFYKDEHLVGLVESLEIAKEEINVLANSKGKIFSTFFKAQEPNKSFQALSSVSDELSRELSKIKNTLNNDGIFYTASENARLEVIKYDLEFLKDAFELVKAKIGADTKEPLTRSFNEQVKGLGSSGKGDKSNYYDYLKGVQESVANACNLKLNKYYRLNMKFNELEALSYEQRLQKDNLLLDVYFKYLELIKNENLSDKAKENLKEQLSLVI,not soluble
17,MGSDKIHHHHHHMIGFEELNLQPGTRLQLMRHRGRTPVQYLSTFIGMERNEYLLLRLPKAQGTFLTFYDGEKVTVRVFSGVMISSFDASVIQTIHHPLNCLCISFPHAIQVKKIRREMRIKVDIEGRLGLQDRTILPVKLTNISATGCQILVDRDIGKVDGQVVLNFNIAQLHDDETSAMTLEAKVRNVVPAGLSGGASFLAGLEFVALESNVQLLVRHYVYECLVDRRQNLV,not soluble
18,MGSDKIHHHHHHMIHVGTCGFCEAREKYFKDFDAVEVQQTFYKVLQEKTLERWRKKAPEEFTFSIKAFQGVTHPSNSPTWRRSNVKPSKNVGLLRPTNEVLHYWRITLKEAKVLGARFILIQLPRSFKEGEESFENAEKFFNAIDRGDFEIGVELRGWSEKGVKRFVREFDVIDVTDPLLRIPLHKGSVNYYRLHGKYEGGKIIYNHSYSDEELKKIRERVLGWNVEESFVFFNNTSMCRDAKRFKLILDLH,not soluble
19,MGSDKIHHHHHHMIIGDKRLDVIHNIKQAANERNFTAKTEIGDPVMSSEEKLALVEGFWQKQDQAKTKFDGTVGHELLQLLTKTISGSTKVNGLGKLKGLPKGGAIVTANHFNQVDALAVNRLAQKAHRRMDIVIEDTNLMLPGFFSYIMNNMGSIPLTQSPNYLGREFIQHLNQAFNQNHWVLIFPEQEMWWNYRKPRKPQRGAYYFAAKCNVPVISTFVEIQDLPKLEKQNEHFYQTRYTVHVLDVLYPDPTKTASENASRLMEEDYKLKVQAYERVYKKKLDYDFTSWDIAGWRGE,not soluble
